Results taken from patent EP0811683B1, “Antibodies to human gastrin-releasing peptide precursor and use thereof” (Yamaguchi, Ken, priority 1996, dated 1997).
Where no end group is shown, it is not given here.

Assay: Comparison of stability of GRPs in the blood (serum, plasma, aprotinin-containing plasma; Fig. 3)
Assay type: in vitro ADME
Settings: 0, 1 and 6 hours, result in words
Description: Stabilities in the blood of GRP(1-27) and GRP(31-98) were compared using antibodies to the above-prepared GRP(31-98) and antibodies to the conventional GRP(1-27).
A small amount of GRP(1-27) or GRP(31-98) was added to a serum, plasma, or aprotinin - containing plasma, and the residual concentration of GRP(1-27) and GRP(31-98) was determined at 0, 1, and 6 hours from the addition, and the percentages of the residual concentration were obtained taking the concentration at the starting point (0 hour) as 100%.

GRP(1-27): mature human gastrin-releasing peptide, active peptide of 27 amino acids (VPLPAGGGTVLTKMYPRGNHWAVGHLM; ends and bridges not checked; UniProt P07492 24-50, looked up)
stability in serum or plasma (residual concentration): degraded and disappeared
